# Source: PMC8260448
# Biological target: thrombin (UniProt P00734;P00734 315-363;364-622)
# Assay: fluorescence polarization
binder,measurement,value
"GGTTGGTGTGGTTGG (structured_DNA, T3 replaced by 5-ethynyl-dU clicked to inactivated N-acyl sulfonamide 2b) [TBA(3)-2b]",Kd,395 nM
